Test results: US20240301022A1 (published 2024)

Biological target: human β1-adrenergic receptor (human, UniProt P08588 1-477)
Assay: radioligand saturation binding, transfected CHO-K1

human β1-adrenergic receptor, sequence (P08588 whole entry): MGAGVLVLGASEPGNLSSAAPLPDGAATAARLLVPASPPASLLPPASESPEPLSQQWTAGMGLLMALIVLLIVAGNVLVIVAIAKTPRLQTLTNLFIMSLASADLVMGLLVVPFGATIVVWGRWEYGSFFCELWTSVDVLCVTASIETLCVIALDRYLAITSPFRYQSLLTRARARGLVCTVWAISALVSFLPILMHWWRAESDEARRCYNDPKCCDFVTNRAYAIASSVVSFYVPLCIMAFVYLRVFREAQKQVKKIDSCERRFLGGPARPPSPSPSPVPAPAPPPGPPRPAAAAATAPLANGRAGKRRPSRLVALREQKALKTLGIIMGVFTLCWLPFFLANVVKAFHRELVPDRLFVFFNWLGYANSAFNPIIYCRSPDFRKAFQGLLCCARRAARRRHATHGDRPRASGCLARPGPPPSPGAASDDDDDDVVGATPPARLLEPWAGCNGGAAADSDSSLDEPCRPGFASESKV

Kd: 493 nM
B1: recombinant human zinc-α2-glycoprotein (ZAG) (ligand)
chain: QENQDGRYSLTYIYTGLSKHVEDVPAFQALGSLNDLQFFRYNSKDRKSQPMGLWRQVEGMEDWKEDSQLQKAREDMETLKDIVEYYNDSNGSHVLQGRFGCEIENNRSSGAFWKYYYDGKDYIEFNKEIPAWVPFDPAAQITKQKWEAEPVYVQRAKAYLEEECPATLRKYLKYSKNILDRQDPPSVVVTSHQAPGEKKKLKCLAYDFYPGKIDVHWTRAGQVQEPELRGDVLHNGNGTYQSWVVVAVPPQDTAPYSCHVQHSSLAQPLVVPWEAS
modifications: 125I label (iodo bead labelling) in the membrane binding studies; labelled residues not stated
